Laboratory results taken from publication PMC8262862.

Assays:
Test in all cases: ELISA
[1] = biological target: B-Phuket HA
[2] = biological target: H1 HA
[3] = biological target: H10 HA
[4] = biological target: H13 HA
[5] = biological target: H14 HA
[6] = biological target: H2 HA
[7] = biological target: H3 HA
[8] = biological target: H5 HA
[9] = biological target: H6 HA
[10] = biological target: H7 HA
[11] = biological target: H8 HA
[12] = biological target: H9 HA

Substance	Kd [1] [nM]	Kd [2] [nM]	Kd [3] [nM]	Kd [4] [nM]	Kd [5] [nM]	Kd [6] [nM]	Kd [7] [nM]	Kd [8] [nM]	Kd [9] [nM]	Kd [10] [nM]	Kd [11] [nM]	Kd [12] [nM]
CR8033	0.11	–	–	–	–	–	–	–	–	–	–	–
FI6v3	> 100	0.29	9	1.5	0.38	0.3	0.23	0.25	0.47	0.34	0.24	0.48
